Data taken from patent publication US20120058906A1 (published 2012).
One block for each binder: values may come before it.

Key:
[1] = target: T1, Recombinant Human DLL4 (R&D Systems Cat#1506-D4/CF) (human, UniProt Q9NR61 27-524); experiment: ECL (MSD Multi-Spot) binding, antigen spotted on plate; Fab 500 nM
T1 construct: Bought recombinant protein; also called delta-like protein 4

[2] = target: T2, rHuman CD44/Fc Chimera, CF (R&D Systems Cat#3660-CD) (human, UniProt P16070 21-220); experiment: as above
T2 construct: Bought Fc chimera; Fc part of the bought chimera not given

[3] = target: T3, rHuman HGF R/c-MET/Fc Chimera, CF (R&D Systems Cat#358-MT/CF) (human, UniProt P08581 25-932); experiment: as above
T3 construct: Bought Fc chimera; also called HGF R/Fc; hepatocyte growth factor receptor; Fc part of the bought chimera not given

[4] = target: T4, rHuman Erythropoietin R/Fc Chimera, CF (R&D Systems Cat#963-ER) (human, UniProt P19235 25-250); experiment: as above
T4 construct: Bought Fc chimera; also called EPO R/Fc; erythropoietin receptor; Fc part of the bought chimera not given
T4 sequence: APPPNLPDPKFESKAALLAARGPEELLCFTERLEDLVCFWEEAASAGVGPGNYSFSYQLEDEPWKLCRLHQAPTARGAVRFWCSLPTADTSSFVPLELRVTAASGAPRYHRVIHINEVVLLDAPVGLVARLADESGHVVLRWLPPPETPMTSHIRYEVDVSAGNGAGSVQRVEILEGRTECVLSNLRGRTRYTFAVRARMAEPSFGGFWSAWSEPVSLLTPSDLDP

[5] = target: T5, rHuman ErbB2/Fc Chimera, CF (R&D Systems Cat#1129-ER) (human, UniProt P04626 23-652); experiment: as above
T5 construct: Bought Fc chimera; also called human epidermal growth factor 2 receptor; HER2/neu; Fc part of the bought chimera not given

[6] = target: T6, rHuman Notch-1/Fc Chimera, CF (R&D Systems Cat#3647-TK) (human, UniProt P46531 19-526); experiment: ECL (MSD multi-spot), antigen on plate, Fab 0.4 nM
T6 construct: Bought Fc chimera; not shown: Fc of the bought chimera

[7] = target: T7, rHuman Notch-1/Fc Chimera, CF (R&D Systems Cat#3647-TK) (human, UniProt P46531 19-526); experiment: ECL (MSD Multi-Spot) binding assay, antigen spotted on plate; Fab 3.8 nM; blank spot 198
T7 construct: Bought Fc chimera; Fc part of the bought chimera not given

[8] = target: T8, rHuman P-Cadherin/Fc Chimera, CF (R&D Systems Cat#861-PC) (human, UniProt P22223 108-654); experiment: as above
T8 construct: Bought Fc chimera; also called CDH3; Fc part of the bought chimera not given

[9] = target: T9, rHuman Erythropoietin R/Fc Chimera, CF (R&D Systems Cat#963-ER) (human, UniProt P19235 25-250); experiment: as above
T9 construct: Bought Fc chimera; also called EPO R/Fc; Epo R; Fc part of the bought chimera not given
T9 sequence: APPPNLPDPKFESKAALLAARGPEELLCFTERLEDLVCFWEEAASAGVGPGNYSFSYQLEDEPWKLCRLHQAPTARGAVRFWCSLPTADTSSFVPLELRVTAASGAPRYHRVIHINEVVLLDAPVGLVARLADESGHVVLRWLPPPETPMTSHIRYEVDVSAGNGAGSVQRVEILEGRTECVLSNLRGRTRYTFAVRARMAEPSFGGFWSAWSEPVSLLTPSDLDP

[10] = target: T10, rHuman CD44/Fc Chimera, CF (R&D Systems Cat#3660-CD) (human, UniProt P16070 21-220); experiment: as above
T10 construct: Bought Fc chimera; Fc part of the bought chimera not given

[11] = target: T11, Recombinant Human DLL4 (R&D Systems Cat#1506-D4/CF) (human, UniProt Q9NR61 27-524); experiment: as above
T11 construct: Bought recombinant protein; also called delta-like protein 4; rHuman DLL4

[12] = target: T12, rHuman Erythropoietin R/Fc Chimera, CF (R&D Systems Cat#963-ER) (human, UniProt P19235 25-250); experiment: MSD ECL multi-spot plate; Fab 8.1 nM; blank spot 435
T12 construct: also called EPO R/Fc; Epo R; Fc part of the bought chimera not given
T12 sequence: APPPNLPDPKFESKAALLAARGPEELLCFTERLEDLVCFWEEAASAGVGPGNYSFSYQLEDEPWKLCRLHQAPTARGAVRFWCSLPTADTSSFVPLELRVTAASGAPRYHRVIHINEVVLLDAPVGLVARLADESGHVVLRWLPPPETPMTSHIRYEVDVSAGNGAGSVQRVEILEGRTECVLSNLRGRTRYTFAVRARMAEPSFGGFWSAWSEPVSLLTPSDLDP

[13] = target: T13, rHuman IGF-1 sR, (IGF-1 sR), CF (R&D Systems Cat#391-GR) (human, UniProt P08069 31-932); experiment: as above
T13 construct: also called insulin-like growth factor-1 soluble receptor; IGF-R1

[14] = target: T14, rHuman ErbB2/Fc Chimera, CF (R&D Systems Cat#1129-ER) (human, UniProt P04626 23-652); experiment: as above
T14 construct: also called HER2/neu; human epidermal growth factor 2 receptor; Fc part of the bought chimera not given

[15] = target: T15, rHuman CD44/Fc Chimera, CF (R&D Systems Cat#3660-CD) (human, UniProt P16070 21-220); experiment: as above
T15 construct: Fc part of the bought chimera not given

[16] = target: T16, rHuman HGF R/c-MET/Fc Chimera, CF (R&D Systems Cat#358-MT/CF) (human, UniProt P08581 25-932); experiment: as above
T16 construct: also called HGF R/Fc; hepatocyte growth factor receptor; Fc part of the bought chimera not given

[17] = target: T17, rHuman Notch-1/Fc Chimera, CF (R&D Systems Cat#3647-TK) (human, UniProt P46531 19-526); experiment: as above
T17 construct: Fc part of the bought chimera not given

[18] = target: T18, rHuman EGF R/Fc Chimera, CF (R&D Systems Cat#344-ER) (human, UniProt P00533 25-645); experiment: as above
T18 construct: also called epidermal growth factor receptor; Fc part of the bought chimera not given

[19] = target: T19, Recombinant Human DLL4 (R&D Systems Cat#1506-D4/CF) (human, UniProt Q9NR61 27-524); experiment: as above
T19 construct: also called delta-like protein 4
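Note: blank spot per well as comparator with Hit at signal to blank ratio of 4 or more.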

ECL signal [1]: 93100 | ECL signal [2]: 664 | ECL signal [3]: 523 | ECL signal [4]: 1210 | ECL signal [5]: 713
B1: Fab VH1-46_IGHD6-6*01_IGHJ1*01_S102A_S103P_S104F_H111Y & L6_IGKJ1*01 (Fab, V domains shown)
VH: QVQLVQSGAEVKKPGASVKVSCKASGYTFTSYYMHWVRQAPGQGLEWMGIINPSGGSTSYAQKFQGRVTMTRDTSTSTVYMELSSLRSEDTAVYYCAREEYAPFSAEYFQYWGQGTLVTVSS
VL: not shown
notes: Fab made in E. coli; The heavy chain also carries the CH1 with Flag and His tags of Plasmid A, and the light chain the kappa constant region of Plasmid C

ECL signal [6]: 248 ECL signal
B2: Fab VH1-46_IGHD6-6*01_IGHJ1*01_S102A_S103P_S104F & L6_IGKJ1*01_S28P (Fab, V domains shown)
VH: QVQLVQSGAEVKKPGASVKVSCKASGYTFTSYYMHWVRQAPGQGLEWMGIINPSGGSTSYAQKFQGRVTMTRDTSTSTVYMELSSLRSEDTAVYYCAREEYAPFSAEYFQHWGQGTLVTVSS
VL: EIVLTQSPATLSLSPGERATLSCRASQPVSSYLAWYQQKPGQAPRLLIYDASNRATGIPARFSGSGSGTDFTLTISSLEPEDFAVYYCQQRSNWPPWTFGQGTKVEIKR
notes: Fab

ECL signal [7]: 383 | ECL signal [8]: 281 | ECL signal [9]: 407 | ECL signal [10]: 419 | ECL signal [11]: 462
B3: Fab VH6-1_IGHD3-3*01_IGHJ4*01 & V4-3_IGLJ4*01 (Fab, V domains shown)
VH: QVQLQQSGPGLVKPSQTLSLTCAISGDSVSSNSAAWNWIRQSPSRGLEWLGRTYYRSKWYNDYAVSVKSRITINPDTSKNQFSLQLNSVTPEDTAVYYCAREYYDFWSGYYTDYFDYWGQGTLVTVSS
VL: QPVLTQPTSLSASPGASARLTCTLRSGINLGSYRIFWYQQKPESPPRYLLSYYSDSSKHQGSGVPSRFSGSKDASSNAGILVISGLQSEDEADYYCMIWHSSASFVFGGGTQLIIL
notes: Tested as a Fab made in E. coli; also called IGHV6-1*01

ECL signal [12]: 660 ECL signal | ECL signal [13]: 518 ECL signal | ECL signal [14]: 557 ECL signal | ECL signal [15]: 528 ECL signal | ECL signal [16]: 551 ECL signal | ECL signal [17]: 612 ECL signal | ECL signal [18]: 560 ECL signal | ECL signal [19]: 1550 ECL signal
B4: Fab VH1-8_IGHD2-2*01_IGHJ6*01 & L12_IGKJ1*01 (Fab, V domains shown)
VH: QVQLVQSGAEVKKPGASVKVSCKASGYTFTSYDINWVRQATGQGLEWMGWMNPNSGNTGYAQKFQGRVTMTRNTSISTAYMELSSLRSEDTAVYYCARGGYCSSTSCYADYYYYYGMDVWGQGTTVTVSS
VL: not shown
